From article PMC8216282, “Structural basis for the dynamics of human methionyl-tRNA synthetase in multi-tRNA synthetase complexes” (Nucleic Acids Research, 2021)

T1: MRS221-900 (methionyl-tRNA synthetase without N-terminal GST domain) (human, UniProt P56192 221-900)
T1 sequence: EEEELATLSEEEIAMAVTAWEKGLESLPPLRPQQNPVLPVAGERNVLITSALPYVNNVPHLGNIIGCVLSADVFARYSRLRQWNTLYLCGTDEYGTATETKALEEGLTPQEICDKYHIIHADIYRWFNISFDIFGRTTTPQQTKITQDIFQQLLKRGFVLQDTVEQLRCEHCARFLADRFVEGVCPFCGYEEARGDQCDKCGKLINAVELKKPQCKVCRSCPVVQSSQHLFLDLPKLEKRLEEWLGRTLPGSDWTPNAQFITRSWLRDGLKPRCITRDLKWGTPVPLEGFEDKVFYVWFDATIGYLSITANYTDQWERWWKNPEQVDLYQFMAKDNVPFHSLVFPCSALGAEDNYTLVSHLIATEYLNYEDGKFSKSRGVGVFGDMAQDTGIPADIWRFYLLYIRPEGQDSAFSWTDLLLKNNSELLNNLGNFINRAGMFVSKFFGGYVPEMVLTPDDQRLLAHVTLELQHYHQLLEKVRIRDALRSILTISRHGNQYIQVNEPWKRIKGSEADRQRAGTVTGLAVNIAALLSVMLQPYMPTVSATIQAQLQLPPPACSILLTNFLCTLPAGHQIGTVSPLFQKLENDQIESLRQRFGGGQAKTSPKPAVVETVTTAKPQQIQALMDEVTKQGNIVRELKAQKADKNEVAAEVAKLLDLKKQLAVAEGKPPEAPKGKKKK

T2: MRS full-length (in MRS-AIMP3 complex);AIMP3 (in MRS-AIMP3 complex) (human;human?, UniProt P56192;O43324 1-900;1-174, |)
T2 sequence 1: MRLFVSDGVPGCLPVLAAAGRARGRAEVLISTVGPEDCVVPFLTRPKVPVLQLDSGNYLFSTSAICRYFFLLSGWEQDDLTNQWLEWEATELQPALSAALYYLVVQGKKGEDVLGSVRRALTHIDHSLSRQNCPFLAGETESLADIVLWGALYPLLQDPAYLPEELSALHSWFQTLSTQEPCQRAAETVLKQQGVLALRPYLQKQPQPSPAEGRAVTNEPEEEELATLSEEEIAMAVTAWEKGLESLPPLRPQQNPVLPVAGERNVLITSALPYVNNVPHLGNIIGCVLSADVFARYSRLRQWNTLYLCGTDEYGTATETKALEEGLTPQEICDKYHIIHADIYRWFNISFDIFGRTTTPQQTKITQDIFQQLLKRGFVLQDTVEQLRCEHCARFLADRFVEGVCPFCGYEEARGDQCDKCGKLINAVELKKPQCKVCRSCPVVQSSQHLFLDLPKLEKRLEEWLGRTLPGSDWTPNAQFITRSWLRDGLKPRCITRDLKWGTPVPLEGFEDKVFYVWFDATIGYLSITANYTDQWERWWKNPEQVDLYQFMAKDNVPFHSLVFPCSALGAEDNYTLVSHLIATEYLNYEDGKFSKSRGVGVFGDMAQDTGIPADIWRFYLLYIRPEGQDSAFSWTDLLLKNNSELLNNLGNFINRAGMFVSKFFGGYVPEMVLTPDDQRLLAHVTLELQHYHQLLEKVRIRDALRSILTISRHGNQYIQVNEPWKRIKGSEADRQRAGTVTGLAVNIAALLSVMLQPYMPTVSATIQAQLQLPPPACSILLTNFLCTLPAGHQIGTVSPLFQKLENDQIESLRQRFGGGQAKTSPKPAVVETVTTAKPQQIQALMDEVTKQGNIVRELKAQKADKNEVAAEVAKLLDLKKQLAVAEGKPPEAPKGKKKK
T2 sequence 2: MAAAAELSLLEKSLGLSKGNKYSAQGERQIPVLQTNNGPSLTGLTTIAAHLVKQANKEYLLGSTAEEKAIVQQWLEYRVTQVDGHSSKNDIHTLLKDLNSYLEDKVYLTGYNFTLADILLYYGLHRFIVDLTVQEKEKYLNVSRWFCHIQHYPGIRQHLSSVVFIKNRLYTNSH


Columns and labels:
[1] = target: T1, MRS221-900 (methionyl-tRNA synthetase …); assay: MST; labeled RNA (80 nM); MST: PBS, 1-100 uM protein, 80 nM 6-FAM-RNA, temperature not stated; pull-down: 50 mM Tris-HCl pH 7.5, 150 mM NaCl, Ni-NTA (yeast total tRNA pool not listed); settings: protein: recombinant; tags: hexa-His; tRNA fold
[2] = target: T2, MRS full-length (in MRS-AIMP3 …); assay: as above; settings: protein: recombinant;recombinant; copies: 1;1; tRNA fold
[3] = target: T1, MRS221-900 (methionyl-tRNA synthetase …); assay: pull-down (Ni-NTA, fluorescence); almost 2-fold; MST: PBS, 1-100 uM protein, 80 nM 6-FAM-RNA, temperature not stated; pull-down: 50 mM Tris-HCl pH 7.5, 150 mM NaCl, Ni-NTA (yeast total tRNA pool not listed); settings: protein: recombinant, tags: hexa-His
[4] = target: T1, MRS221-900 (methionyl-tRNA synthetase …); assay: MST; protein labeled with Red-tris-NTA, unlabeled RNA; MST: PBS, 1-100 uM protein, 80 nM 6-FAM-RNA, temperature not stated; pull-down: 50 mM Tris-HCl pH 7.5, 150 mM NaCl, Ni-NTA (yeast total tRNA pool not listed); settings: protein: recombinant; tags: hexa-His; label: none (Results); Methods text says 6-FAM-RNA for this assay too; tRNA fold
[5] = target: T2, MRS full-length (in MRS-AIMP3 …); assay: as above; settings: protein: recombinant;recombinant; copies: 1;1; label: none (Results); Methods text says 6-FAM-RNA for this assay too; tRNA fold

Row | Binder | Kd [1] [µM] | Kd [2] [µM] | binding signal [3] [fold vs MRS-AIMP3 complex] | Kd [4] [µM] | Kd [5] [µM]
1 | 6-FAM synthetic elongator tRNAMet (structured_RNA, none stated (synthetic RNA)) RNA: GCCUCGUUAGCGCAGUAGGUAGCGCGUCAGUCUCAUAAUCUGAAGGUCGUGAGUUCGAUCCUCACACGGGGCA | 12.8 | 31.6 | ~2 |  | 
2 | unlabeled synthetic elongator tRNAMet (structured_RNA, none stated (synthetic RNA)) RNA: GCCUCGUUAGCGCAGUAGGUAGCGCGUCAGUCUCAUAAUCUGAAGGUCGUGAGUUCGAUCCUCACACGGGGCA |  |  |  | 21.6 | 60.2
